Broadly, the stoichiometry N is a count of units in the complex or per binding partner.

First the molecules themselves.
B3: Ask1 (natural protein, budding yeast, UniProt P35734 1-292, looked up)
chain: MDSASKEETLEKLDQEITVNLQKIDSNLSFCFHKITQDIIPHVATYSEICERIMDSTEWLGTMFQETGLVNLQANAAAPVGNAPVKSLVSNNVGIFPTSAEEASRQSQTDNGPNEADSAVHVNRDVHSMFNNDSIDDFHTANITSTGQILKLPDSSDEDTGSEAVPSREQTDLTGEGHGGADDEQDESTIQRQSRKRKISLLLQQQYGSSSSMVPSPIVPNKMRKQLAHEEHINNDGDNDDENSNNIESSPLKQGHHHPKGQADDNNEGPDEEESTKEVPKPGTIIHFSTNR
notes: Ask1, subunit of the budding yeast Dam1 complex; Subunit inside the recombinant 10-subunit complex; source: expressed and purified as part of the Dam1 complex as described [3]
B4: Duo1 (natural protein, budding yeast, UniProt P53168 1-247, looked up)
chain: MSEQSQLDDSTIDKLIPQIFNEMRSNLNNTTNKFPKSTGGGASDNISANSNSIRSFNSITTQSLLKESESLDKITAMIKNVTAALKNNLPVYVNQVHEVCKSTNSILDSWINIHSQAGYIHKLMSDQTYLKLINDRLHNENVNTNDEDGSTLHNVIALKKKEILDLRQKLENRKGEKDAAPAKPPNQGLNPRYGVQSGRRPVPSAGISNNGRVRKTHVPASKRPSGIPRVTNRWTKPTASSSRKMFR
notes: Duo1, subunit of the budding yeast Dam1 complex; Subunit inside the recombinant 10-subunit complex; also called Duo1 subunit; source: expressed and purified as part of the Dam1 complex as described [3]
B5: Spc34 (natural protein, budding yeast, UniProt P36131 1-295, looked up)
chain: MGESLDRCIDDINRAVDSMSTLYFKPPGIFHNAILQGASNKASIRKDITRLIKDCNHDEAYLLFKVNPEKQSVSRRDGKEGVFDYVIKRDTDMKRNRRLGRPGEKPIIHVPKEVYLNKDRLDLNNKRRRTATTSGGGLNGFIFDTDLIGSSVISNSSSGTFKALSAVFKDDPQIQRLLYALENGSVLMEEESNNQRRKTIFVEDFPTDLILKVMAEVTDLWPLTEFKQDYDQLYHNYEQLSSKLRFIKKEVLLQDDRLKTMSQYHPSSSHDVAKIIRKEKDEIRRLEMEIANLQE
notes: Spc34, subunit of the budding yeast Dam1 complex; Subunit inside the recombinant 10-subunit complex; source: expressed and purified as part of the Dam1 complex as described [3]
B6: Spc19 (natural protein, budding yeast, UniProt Q03954 1-165, looked up)
chain: MTDALEQSVLALEGTVSVLKDSVESLKCANEPSTNLASTMLQTKRVFRLVPEYDVERSKLDLIEEVEPLVRTLGDKLRKSMGRMQRELDTLQQTYELNDLRLKKNISMDDDDALNSPDMGQEYEGRDADDVVMMASSTNEELEELKKLKEKKKQLENKLEILKQK
notes: Spc19, subunit of the budding yeast Dam1 complex; Subunit inside the recombinant 10-subunit complex; also called Sp19; source: expressed and purified as part of the Dam1 complex as described [3]

Series [1] deals with the molecule itself. As to the kind of experiment: cross-linking; BS3, Dam1 complex at 0.05 mg/ml in solution; cross-linked species (approx. 110, 220 and 440 kDa) separated by SDS-PAGE, bands cut out, in-gel trypsin digestion, mass spectrometry.
The series “Spc19” has as its target B6. The description is as above. The settings on record: both partners purified.
Series [2] deals with B3. Nature of the series: cross-linking; EDC with Sulfo-NHS, Dam1 complex assembled on taxol-stabilized microtubules in BRB80, pellet washed, room temperature 1 h, digested in solution, mass spectrometry. The settings on record: both partners purified.
Series [3] has as its target T1, Dam1 (budding yeast, UniProt P53267 1-343).
T1 construct: Dam1, subunit of the budding yeast Dam1 complex; Subunit inside the recombinant 10-subunit complex; also called Dam1 subunit; source: expressed and purified as part of the Dam1 complex as described [3]
T1 sequence (looked up): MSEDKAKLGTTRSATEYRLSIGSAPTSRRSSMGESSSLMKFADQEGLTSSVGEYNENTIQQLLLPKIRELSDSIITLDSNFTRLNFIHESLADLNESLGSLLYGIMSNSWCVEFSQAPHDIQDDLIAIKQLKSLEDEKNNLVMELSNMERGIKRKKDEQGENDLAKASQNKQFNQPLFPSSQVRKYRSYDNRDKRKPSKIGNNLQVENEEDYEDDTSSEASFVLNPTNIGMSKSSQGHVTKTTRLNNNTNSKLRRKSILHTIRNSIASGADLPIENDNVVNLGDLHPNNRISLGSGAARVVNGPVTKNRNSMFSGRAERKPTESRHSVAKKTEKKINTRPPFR
Nature of the series: cross-linking; BS3, Dam1 complex at 0.3 mg/ml in BRB80, room temperature 40-60 min, digested in solution, mass spectrometry; some links may be between oligomerizing complexes. Particulars: both partners purified.

The target in series [4] is B5. The series is described as above. Particulars: both partners purified.
The target in series [5] is B3. Described as above. Particulars: both partners purified.
The target in series [6] is B5. As to the kind of experiment: cross-linking; BS3, Dam1 complex at 0.05 mg/ml in solution; cross-linked species (approx. 110, 220 and 440 kDa) separated by SDS-PAGE, bands cut out, in-gel trypsin digestion, mass spectrometry. The settings on record: both partners purified.
In the series “Duo1” the target is B4. Nature of the series: cross-linking; BS3, Dam1 complex at 0.3 mg/ml in BRB80, room temperature 40-60 min, digested in solution, mass spectrometry; some links may be between oligomerizing complexes. The settings on record: both partners purified.
Series [7] deals with T1, Dam1. As to the kind of experiment: cross-linking; BS3, size-exclusion fraction of the Dam1 complex Duo1Δ184 eluting as the full complex, mass spectrometry. Particulars: both partners purified. On the technique in general: In gel filtration, larger molecules generally elute earlier.

B1: Dam1 complex (complex, budding yeast)
chain 1: MSEDKAKLGTTRSATEYRLSIGSAPTSRRSSMGESSSLMKFADQEGLTSSVGEYNENTIQQLLLPKIRELSDSIITLDSNFTRLNFIHESLADLNESLGSLLYGIMSNSWCVEFSQAPHDIQDDLIAIKQLKSLEDEKNNLVMELSNMERGIKRKKDEQGENDLAKASQNKQFNQPLFPSSQVRKYRSYDNRDKRKPSKIGNNLQVENEEDYEDDTSSEASFVLNPTNIGMSKSSQGHVTKTTRLNNNTNSKLRRKSILHTIRNSIASGADLPIENDNVVNLGDLHPNNRISLGSGAARVVNGPVTKNRNSMFSGRAERKPTESRHSVAKKTEKKINTRPPFR
chain 2: MSEQSQLDDSTIDKLIPQIFNEMRSNLNNTTNKFPKSTGGGASDNISANSNSIRSFNSITTQSLLKESESLDKITAMIKNVTAALKNNLPVYVNQVHEVCKSTNSILDSWINIHSQAGYIHKLMSDQTYLKLINDRLHNENVNTNDEDGSTLHNVIALKKKEILDLRQKLENRKGEKDAAPAKPPNQGLNPRYGVQSGRRPVPSAGISNNGRVRKTHVPASKRPSGIPRVTNRWTKPTASSSRKMFR
chain 3: MMASTSNDEEKLISTTDKYFIEQRNIVLQEINETMNSILNGLNGLNISLESSIAVGREFQSVSDLWKTLYDGLESLSDEAPIDEQPTLSQSKTK
chain 4: MDSIDEQIAIKRKELQSLQKITSLTDGLKIQLTELNEQIKEMGMNADSVAQLMNNWDSIINNISQASLGLLQYAEGDYEIGPWKDSKKKESEQSNETGLEAQENDKNDEDNDEDEDLVPLPETMVRIRVDGNE
chain 5: MEHNLSPLQQEVLDKYKQLSLDLKALDETIKELNYSQHRQQHSQQETVSPDEILQEMRDIEVKIGLVGTLLKGSVYSLILQRKQEQESLGSNSK
chain 6: MENPHEQVQANILSRIIGNVKRLNESVAILNQELVTINNRNKNLEIMGAICDNYHSSVQFNLEATNNKKPPL
chain 7: MNANKQRQYNQLAHELRELQTNLQETTKQLDIMSKQCNENLVGQLGKVHGSWLIGSYIYYMEQMLGKTQ
chain 8: MDSASKEETLEKLDQEITVNLQKIDSNLSFCFHKITQDIIPHVATYSEICERIMDSTEWLGTMFQETGLVNLQANAAAPVGNAPVKSLVSNNVGIFPTSAEEASRQSQTDNGPNEADSAVHVNRDVHSMFNNDSIDDFHTANITSTGQILKLPDSSDEDTGSEAVPSREQTDLTGEGHGGADDEQDESTIQRQSRKRKISLLLQQQYGSSSSMVPSPIVPNKMRKQLAHEEHINNDGDNDDENSNNIESSPLKQGHHHPKGQADDNNEGPDEEESTKEVPKPGTIIHFSTNR
chain 9: MTDALEQSVLALEGTVSVLKDSVESLKCANEPSTNLASTMLQTKRVFRLVPEYDVERSKLDLIEEVEPLVRTLGDKLRKSMGRMQRELDTLQQTYELNDLRLKKNISMDDDDALNSPDMGQEYEGRDADDVVMMASSTNEELEELKKLKEKKKQLENKLEILKQK
chain 10: MGESLDRCIDDINRAVDSMSTLYFKPPGIFHNAILQGASNKASIRKDITRLIKDCNHDEAYLLFKVNPEKQSVSRRDGKEGVFDYVIKRDTDMKRNRRLGRPGEKPIIHVPKEVYLNKDRLDLNNKRRRTATTSGGGLNGFIFDTDLIGSSVISNSSSGTFKALSAVFKDDPQIQRLLYALENGSVLMEEESNNQRRKTIFVEDFPTDLILKVMAEVTDLWPLTEFKQDYDQLYHNYEQLSSKLRFIKKEVLLQDDRLKTMSQYHPSSSHDVAKIIRKEKDEIRRLEMEIANLQE
notes: Dam1, budding yeast; Duo1, budding yeast; Dad1, budding yeast; Dad2, budding yeast; Dad3, budding yeast; Dad4, budding yeast; Hsk3, budding yeast; Ask1, budding yeast; Spc19, budding yeast; Spc34, budding yeast; 10-subunit complex; also called heterodecameric Dam1 complex; wild-type Dam1 complex; source: expressed and purified as described [3]; copies: + + + + + + + + +
With B1, the “stoichiometry N” value in series [1] came to 2.

B2: Dad2 (natural protein, budding yeast, UniProt P36162 1-133, looked up)
chain: MDSIDEQIAIKRKELQSLQKITSLTDGLKIQLTELNEQIKEMGMNADSVAQLMNNWDSIINNISQASLGLLQYAEGDYEIGPWKDSKKKESEQSNETGLEAQENDKNDEDNDEDEDLVPLPETMVRIRVDGNE
notes: Dad2, subunit of the budding yeast Dam1 complex; Subunit inside the recombinant 10-subunit complex; source: expressed and purified as part of the Dam1 complex as described [3]
As for B2, the binding result with Spc19, in the series with Ask1 [2] and in the series with Dam1 [3] was “binds” throughout.
Turning to B3, the binding result with Dam1 [3] and with Spc34 [4] was “binds” in each case.
With B4, the binding result with Ask1 [5], with Dam1 [3] and with Spc34 [4] was “binds” in each case.
Take B5: the binding result with Dam1 [3] is “binds”.
In the case of B6, the binding result with Spc34 [6], with Duo1, in the series with Ask1 [5] and with Dam1 [3] was “binds” in each case.

B7: Duo1Δ184 (domain or fragment, budding yeast, UniProt P53168 1-183, looked up)
chain: MSEQSQLDDSTIDKLIPQIFNEMRSNLNNTTNKFPKSTGGGASDNISANSNSIRSFNSITTQSLLKESESLDKITAMIKNVTAALKNNLPVYVNQVHEVCKSTNSILDSWINIHSQAGYIHKLMSDQTYLKLINDRLHNENVNTNDEDGSTLHNVIALKKKEILDLRQKLENRKGEKDAAPAK
notes: Duo1, budding yeast; stop codon inserted at position 184; Subunit inside the Dam1 complex Duo1Δ184; also called Duo1 lacking its C terminus (Δ184); source: purified as part of the Dam1 complex Duo1Δ184 (Ni–NTA, Superose 6 size-exclusion chromatography)
As to B7, the binding result with Dam1 [7] was “binds”.

The values are drawn from article PMC4821239, “Molecular architecture of the Dam1 complex–microtubule interaction” (Open Biology, 2016).
